US20150203575A1 (Genentech, published 2015)
Where two headings read alike, the source gives them in different places.

Experiments:
APLP1 expressed on cells = molecular target: T1, APLP1 expressed on cells (human, UniProt P51693 39-650); assay: cDNA expression library screen with PILRα-AP supernatant on COS7 transfectants; positive clones further analysed by FACS
T1 construct: Clone of the Origene human cDNA library; also called Amyloid beta precursor like protein 1
T1 sequence: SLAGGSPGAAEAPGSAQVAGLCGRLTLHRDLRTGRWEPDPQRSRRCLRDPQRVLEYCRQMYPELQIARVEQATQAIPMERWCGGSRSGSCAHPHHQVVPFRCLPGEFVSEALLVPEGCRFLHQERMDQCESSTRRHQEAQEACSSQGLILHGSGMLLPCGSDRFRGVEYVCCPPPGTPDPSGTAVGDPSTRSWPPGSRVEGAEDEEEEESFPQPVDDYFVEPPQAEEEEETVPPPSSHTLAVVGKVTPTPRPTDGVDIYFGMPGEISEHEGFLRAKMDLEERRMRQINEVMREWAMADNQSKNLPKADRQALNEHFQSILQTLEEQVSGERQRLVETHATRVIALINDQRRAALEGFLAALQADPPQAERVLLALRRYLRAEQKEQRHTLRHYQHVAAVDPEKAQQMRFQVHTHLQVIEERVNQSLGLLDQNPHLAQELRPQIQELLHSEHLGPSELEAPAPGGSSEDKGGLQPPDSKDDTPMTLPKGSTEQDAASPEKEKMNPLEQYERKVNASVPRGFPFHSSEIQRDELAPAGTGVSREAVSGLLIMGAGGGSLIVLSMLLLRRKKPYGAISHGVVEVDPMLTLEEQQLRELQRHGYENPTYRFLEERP
Experimental: (§1) COS7 cells were plated in a 24-well format and transfected with 10 ul of Origene library DNA (Origene, human DNA library containing 20 k genes) per well with Fugene 6 Reagent. Two days later, cells were incubated with human or mouse PILRα-Ap supernatants for 45 min at room temperature (RT). Then cells were fixed with 4% PFA for 15 min at RT. After removing fixation buffer, cells were blocked with 100 mM Glycine in HBS (20 mM Hepes, PH7.2, 150 mM NaCl) for 15 min at RT. Cells were then rinsed and incubated in HBS for 90 min at 65° C. HBS was removed and Western Blue Substrate (Promega) was added and color was developed for 30 min to 1 hr.

WDR31 expressed on cells = molecular target: T2, WDR31 expressed on cells (human, UniProt Q8NA23 1-367); assay: as above
T2 construct: Clone of the Origene human cDNA library; also called WD repeat domain 31
T2 sequence (Q8NA23 other isoform, or with tags, fused parts or gaps): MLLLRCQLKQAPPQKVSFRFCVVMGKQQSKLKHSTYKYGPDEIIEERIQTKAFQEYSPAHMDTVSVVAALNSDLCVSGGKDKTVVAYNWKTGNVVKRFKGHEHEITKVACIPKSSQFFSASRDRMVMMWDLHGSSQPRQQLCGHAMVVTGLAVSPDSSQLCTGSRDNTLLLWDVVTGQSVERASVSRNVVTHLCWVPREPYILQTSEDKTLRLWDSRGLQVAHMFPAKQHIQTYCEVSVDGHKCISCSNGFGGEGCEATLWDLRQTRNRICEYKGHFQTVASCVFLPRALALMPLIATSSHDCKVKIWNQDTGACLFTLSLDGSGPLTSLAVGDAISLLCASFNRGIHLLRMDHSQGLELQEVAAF
Experimental: as §1

[1] = molecular target: T3, CLEC4G expressed on cells (human, UniProt Q6UXB4 1-293); assay: as above
T3 construct: Clone of the Origene human cDNA library; also called C type lectin superfamily 4 member G
T3 sequence: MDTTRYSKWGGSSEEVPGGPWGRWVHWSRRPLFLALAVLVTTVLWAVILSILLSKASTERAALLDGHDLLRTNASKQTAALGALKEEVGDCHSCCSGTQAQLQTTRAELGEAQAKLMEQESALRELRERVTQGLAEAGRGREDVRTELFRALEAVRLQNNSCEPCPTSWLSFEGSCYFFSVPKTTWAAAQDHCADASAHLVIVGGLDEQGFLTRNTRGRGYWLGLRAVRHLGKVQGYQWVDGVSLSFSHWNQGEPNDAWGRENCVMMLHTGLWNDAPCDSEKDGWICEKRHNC
Experimental: as §1

PSS8 expressed on cells [2] = molecular target: T4, PSS8 expressed on cells (human, UniProt Q16651 30-343); assay: flow cytometry, transfected 293T cells, 50 µg/ml
T4 construct: Clone of the Origene human cDNA library; also called Protease serine 8; prostasin
T4 sequence (Q16651 30-343 limits assumed): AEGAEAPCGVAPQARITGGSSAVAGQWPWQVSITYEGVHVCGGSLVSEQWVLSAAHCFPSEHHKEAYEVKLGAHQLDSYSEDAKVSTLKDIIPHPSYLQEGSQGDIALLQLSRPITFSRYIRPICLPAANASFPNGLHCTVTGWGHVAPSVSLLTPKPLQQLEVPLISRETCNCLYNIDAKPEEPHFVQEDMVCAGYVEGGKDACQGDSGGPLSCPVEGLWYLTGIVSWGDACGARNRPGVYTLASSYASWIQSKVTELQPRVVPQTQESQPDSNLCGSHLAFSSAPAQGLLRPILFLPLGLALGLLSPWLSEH

BR3 expressed on cells [3] = molecular target: T5, BR3 expressed on cells (human, UniProt Q96RJ3 1-184); assay: flow cytometry, transfected 293T cells, 50 µg/ml
T5 construct: Clone of the Origene human cDNA library
T5 sequence: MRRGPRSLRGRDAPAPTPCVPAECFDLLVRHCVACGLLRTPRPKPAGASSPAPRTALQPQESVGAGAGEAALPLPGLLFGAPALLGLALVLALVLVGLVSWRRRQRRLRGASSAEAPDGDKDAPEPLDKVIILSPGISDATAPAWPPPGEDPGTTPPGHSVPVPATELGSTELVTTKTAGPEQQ

[4] = molecular target: T6, IL-2Ra expressed on cells (human, UniProt P01589 22-272); assay: flow cytometry, transfected 293T cells, 50 µg/ml
T6 construct: Clone of the Origene human cDNA library; also called Interleukin 2 receptor alpha
T6 sequence: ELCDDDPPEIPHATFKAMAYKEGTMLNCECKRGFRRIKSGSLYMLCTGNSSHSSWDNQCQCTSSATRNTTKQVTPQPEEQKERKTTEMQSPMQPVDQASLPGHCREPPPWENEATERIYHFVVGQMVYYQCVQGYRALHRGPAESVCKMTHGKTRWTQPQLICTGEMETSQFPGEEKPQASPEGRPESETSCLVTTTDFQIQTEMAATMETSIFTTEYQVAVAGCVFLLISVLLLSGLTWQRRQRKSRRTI

PSS8 expressed on cells [5] = molecular target: T4, PSS8 expressed on cells; assay: flow cytometry, transfected 293T cells, 50 µg/ml; remark: listed apart in the source
BR3 expressed on cells [6] = molecular target: T5, BR3 expressed on cells; assay: flow cytometry, transfected 293T cells, 50 µg/ml; remark: listed apart in the source
[7] = molecular target: T6, IL-2Ra expressed on cells; assay: flow cytometry, transfected 293T cells, 50 µg/ml; remark: listed apart in the source
[8] = molecular target: T3, CLEC4G expressed on cells; assay: flow cytometry, transfected 293T cells
[9] = molecular target: T7, LRRTM4 expressed on cells (human, UniProt Q86VH4 31-590); assay: flow cytometry, transfected 293T cells
T7 construct: Clone of the Origene human cDNA library; also called Leucine rich repeat transmembrane neuronal 4
T7 sequence (Q86VH4 31-590 limits assumed): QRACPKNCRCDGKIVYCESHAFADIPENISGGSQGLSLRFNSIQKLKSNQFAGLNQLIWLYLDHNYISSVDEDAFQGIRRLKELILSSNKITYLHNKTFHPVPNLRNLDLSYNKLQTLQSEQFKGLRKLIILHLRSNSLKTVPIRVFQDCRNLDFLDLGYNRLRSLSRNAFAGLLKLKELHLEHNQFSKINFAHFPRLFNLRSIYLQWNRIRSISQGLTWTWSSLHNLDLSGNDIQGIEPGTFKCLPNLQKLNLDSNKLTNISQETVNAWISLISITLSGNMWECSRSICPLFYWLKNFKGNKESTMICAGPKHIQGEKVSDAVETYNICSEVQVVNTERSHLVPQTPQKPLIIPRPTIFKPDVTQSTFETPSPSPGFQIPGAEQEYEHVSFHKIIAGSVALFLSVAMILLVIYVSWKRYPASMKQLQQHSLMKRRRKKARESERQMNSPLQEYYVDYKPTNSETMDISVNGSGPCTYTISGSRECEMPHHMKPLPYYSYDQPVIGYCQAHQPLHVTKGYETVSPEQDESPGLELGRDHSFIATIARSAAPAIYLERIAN

B1: hPILRα-AP (other)
chain: QPSGSTGSGPSYLYGVTQPKHLSASMGGSVEIPFSFYYPWELATAPDVRISWRRGHFHRQSFYSTRPPSIHKDYVNRLFLNWTEGQKSGFLRISNLQKQDQSVYFCRVELDTRSSGRQQWQSIEGTKLSITQAVTTTTQRPSSMTTTWRLSSTTTTTGLRVTQGKRRSDSWHISLET
notes: Used as culture supernatant; also called human PILRα-AP; Alkaline phosphatase (AP)-tagged PILRα construct; not shown: C-terminal alkaline phosphatase (AP) tag
binding result (APLP1 expressed on cells): binds
binding result (WDR31 expressed on cells): binds
binding result [1]: binds

B2: mPILRα-Fc (Fc fusion)
chain: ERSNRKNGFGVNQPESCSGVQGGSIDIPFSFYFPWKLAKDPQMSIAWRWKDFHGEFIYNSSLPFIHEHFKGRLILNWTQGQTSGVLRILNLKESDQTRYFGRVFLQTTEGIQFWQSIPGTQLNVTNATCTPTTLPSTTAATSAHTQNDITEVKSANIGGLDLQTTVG
notes: also called mouse PILRα-Fc; WT mPILRα-Fc; not shown: Fc of mouse IgG2a (PILRα-mIgG2a, called PILRα-Fc)
% cells in lower right quadrant (PSS8 expressed on cells [2]): 30.6%
% cells in lower right quadrant (BR3 expressed on cells [3]): 53.3%
% cells in lower right quadrant [4]: 55.7%
% cells in lower right quadrant (PSS8 expressed on cells [5]): 30.6%
% cells in lower right quadrant (BR3 expressed on cells [6]): 53.3%
% cells in lower right quadrant [7]: 55.7%

B3: mPILRαR133A-Fc (Fc fusion)
chain: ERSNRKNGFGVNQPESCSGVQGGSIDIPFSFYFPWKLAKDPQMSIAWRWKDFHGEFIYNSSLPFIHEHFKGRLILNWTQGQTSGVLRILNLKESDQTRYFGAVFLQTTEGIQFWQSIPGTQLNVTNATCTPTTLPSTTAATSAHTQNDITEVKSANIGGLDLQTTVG
notes: Arg mutant of mPILRα-Fc; also called mPILRα133A-Fc; variant mPILRα (R133A); not shown: Fc of mouse IgG2a (PILRα-mIgG2a, called PILRα-Fc)
binding result [8]: no binding (tested: 50 µg/ml)
binding result [9]: no binding (tested: 50 µg/ml)
